From PMC10351450 (Autophagy, 2023)

Target: Oligomeric recombinant human Aβ1-42 (human, UniProt P05067)
Assay: co-IP

B1: ATP6V0C subunit of V-ATPase from mouse brain (natural protein)
chain: MADIKNNPEYSSFFGVMGASSAMVFSAMGAAYGTAKSGTGIAAMSVMRPELIMKSIIPVVMAGIIAIYGLVVAVLIANSLTDGITLYRSFLQLGAGLSVGLSGLAAGFAIGIVGDAGVRGTAQQPRLFVGMILILIFAEVLGLYGLIVALILSTK
B1: binds.
